Measured values taken from patent publication US20220162320A1 (published 2022).
Values belong to the binder of their own block, whether it stands above or below them.

How the values were obtained:
[1] = target: T1, HLA-PEPTIDE target G2: HLA-A*01:01_…, recombinant soluble complex (human, enzymatically biotinylated (BirA)); assay: BLI; apparent KD (bivalent), avid
[2] = target: T2, CD3 (reagent of the affinity experiments of Example 18) (UniProt P07766 23-126); assay: BLI
T2 chain: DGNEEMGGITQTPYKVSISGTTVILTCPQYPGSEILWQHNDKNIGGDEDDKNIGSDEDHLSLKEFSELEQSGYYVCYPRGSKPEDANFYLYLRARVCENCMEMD

[3] = target: T1, HLA-PEPTIDE target G2: HLA-A*01:01_…, …; assay: BLI
[4] = target: T2, CD3 (reagent of the affinity …); assay: BLI; aCD3 IgG load
[5] = target: T2, CD3 (reagent of the affinity …); assay: BLI; aCD3 IgG analyte, apparent KD (bivalent), avid
[6] = target: T2, CD3 (reagent of the affinity …); assay: BLI; aCD3 IgG analyte

- Kd [1]: 2.72 nM
- Kd [2]: 26.1 nM
- Kd [3]: 5.34 nM
B1: 4-G2(1H11)-hOKT3 (bispecific antibody)
chain: not shown
heavy: QVQLVQSGAEVKKPGASVKVSCKASGYTFTNYYMHWVRQAPGQGLEWMGMINPSGGGTSYAQKFQGRVTMTRDTSTSTVYMELSSLRSEDTAVYYCARGNPWELRLDYWGQGTLVTVSSGGGGSGGGGSGGGGSGGGGSDIQMTQSPSSLSASVGDRVTITCQASQDISNYLNWYQQKPGKAPKLLIYAASSLQSGVPSRFSGSGSGTDFTLTISSLQPEDFATYYCQQYYSYPFTFGPGTKVDIKGGGGSGGGGSQVQLVQSGAEVKKPGASVKVSCKASGYTFTRYTMHWVRQAPGQGLEWMGYINPSRGYTNYNQKFKDRVTLTTDKSSSTAYMELSSLRSEDTAVYYCARYYDDHYSLDYWGQGTLVTVSSASTKGPSVFPLAPSSKSTSGGTAALGCLVKDYFPEPVTVSWNSGALTSGVHTFPAVLQSSGLYSLSSVVTVPSSSLGTQTYICNVNHKPSNTKVDKRVEPKSCDKTHTCPPCPAPELLGGPSVFLFPPKPKDTLMISRTPEVTCVVVDVSHEDPEVKFNWYVDGVEVHNAKTKPREEQYQSTYRVVSVLTVLHQDWLNGKEYKCKVSNKALPAPIEKTISKAKGQPREPQVCTLPPSREEMTKNQVSLSCAVKGFYPSDIAVEWESNGQPENNYKTTPPVLDSDGSFFLVSKLTVDKSRWQQGNVFSCSVMHEALHNRFTQKSLSLSPGK
light: DIQMTQSPSSLSASVGDRVTITCSASSSVSYMNWYQQKPGKAPKRLIYDTSKLASGVPSRFSGSGSGTDFTLTISSLQPEDFATYYCQQWSSNPFTFGQGTKLEIKRTVAAPSVFIFPPSDEQLKSGTASVVCLLNNFYPREAKVQWKVDNALQSGNSQESVTEQDSKDSTYSLSSTLTLSKADYEKHKVYACEVTHQGLSSPVTKSFNRGEC

- Kd [4]: 2.92 nM
- Kd [5]: < 1 pM
- Kd [6]: 144 nM
B2: antibody designated αCD3, in IgG format (antibody, V domains shown)
VH: EVQLVESGGGLVQPGGSLRLSCAASGFTFSTYAMNWVRQAPGKGLEWVGRIRSKYNNYATYYADSVKGRFTISRDDSKNTLYLQMNSLRAEDTAVYYCVRHGNFGDSYVSWFAYWGQGTLVTVSS
VL: QAVVTQEPSLTVSPGGTVTLTCGSSTGAVTTSNYANWVQQKPGKSPRGLIGGTNKRAPGVPARFSGSLLGGKAALTISGAQPEDEADYYCALWYSNHWVFGGGTKLTVLR
